The results in this text go back to article PMC2690590 (2009).

In the assay the target is DR1: DRA*0101(1–191)/DRB1*0101(1–198) (human).

B1: C-terminal fragment of the invariant chain (positions 118–208), devoid of CLIP (domain or fragment)
chain: LPMGALPQGPMQNATKYGNMTEDHVMHLLQNADPLKVYPPLKGSFPENLRHLKNTMETIDWKVFESWMHHWLLFEMSRHSLEQKPTDAPPK
For orientation: IC50 means the midpoint of a concentration-inhibition curve. Higher therefore signals lower potency. B1 came in with an IC50 of 1700 nM.

Turning to LPKPPKPVSKMRMATPLLMQALPM [CLIP peptide fragment of the invariant chain (positions 97–120)], half-maximal inhibition (IC50) required 40 nM.

Turning to PKYVKQNTLKLAT [influenza hemagglutinin peptide HA306–318], the IC50 was 34 nM.

B2: recombinant extracellular part of human invariant chain (positions 73–208) (domain or fragment)
chain: QQQGRLDKLTVTSQNLQLENLRMKLPKPPKPVSKMRMATPLLMQALPMGALPQGPMQNATKYGNMTEDHVMHLLQNADPLKVYPPLKGSFPENLRHLKNTMETIDWKVFESWMHHWLLFEMSRHSLEQKPTDAPPK
In the case of B2, the IC50 came to 40 nM.
